Residue numbers refer to the chain shown, from its start. Names and notes keep the numbering of the source. “Also recorded” adds a separate entry of the source.
B1: FGF21-19A: Hybrid protein: FGF21 1–156 fused with FGF19 169–194 (K194A) (protein)
chain: HPIPDSSPLLQFGGQVRQRYLYTDDAQQTEAHLEIREDGTVGGAADQSPESLLQLKALKPGVIQILGVKTSRFLCQRPDGALYGSLHFDPEACSFRELLLEDGYNVYQSEAHGLPLHLPGNKSPHRDPAPRGPARFLPLPGLPPALPEPPGILAPQPLETDSMDPFGLVTGLEAVRSPSFEA
modifications: left off: SUMO (yeast), end not stated, cleaved | His6, end not stated, state not stated
B2: FGF23: FGF23 (#Q9GZV9: 25–251) (protein, UniProt Q9GZV9 25-251, looked up)
Fibroblast growth factor 23: YPNASPLLGSSWGGLIHLYTATARNSYHLQIHKNGHVDGAPHQTIYSALMIRSEDAGFVVITGVMSRRYLCMDFRGNIFGSHYFDPENCRFQHQTLENGYDVYHSPQYHFLVSLGRAKRAFLPGMNPPPYSQFLSRRNEIPLIHFNTPIPRRHTRSAEDDSERDPLNVLKPRARMTPAPASCSQELPSAEDNSPMASDPLGVVRGGRVNTHAGGTGPEGCRPFAKFI
B3: FGF21,A^164: Native FGF21 with D164A substitution (protein, UniProt Q9NSA1 29-209, looked up, variant D164A)
Fibroblast growth factor 21: HPIPDSSPLLQFGGQVRQRYLYTDDAQQTEAHLEIREDGTVGGAADQSPESLLQLKALKPGVIQILGVKTSRFLCQRPDGALYGSLHFDPEACSFRELLLEDGYNVYQSEAHGLPLHLPGNKSPHRDPAPRGPARFLPLPGLPPALPEPPGILAPQPPDVGSSAPLSMVGPSQGRSPSYAS
B4: FGF21: Human FGF21 (UniProtKB #Q9NSA1 29–209, designated 1–181) (protein)
chain: B3 Fibroblast growth factor 21 with A164D
modifications: left off: SUMO (yeast), end not stated, cleaved | His6, end not stated, state not stated

Tests used:
[1] = tested on: diet-induced obese (DIO) mice; experiment: In vivo FGF21 agonism study in DIO mice; set-up: species or system mouse; settings: for Body weight change: daily sc 0.1, 0.3 or 1 mg/kg for 7 days, n = 8
Excerpt: (§1) All animal studies were approved by and performed according to the guidelines of the Institutional Animal Care and Use Committee of the University of Cincinnati (Cincinnati, USA). Eight-week old male C57BL/6J mice (Jackson Laboratories) were given ad libitum access to either a chow diet (lean mice), or a high-fat high-sugar diet (HFD, DIO mice) containing 58% kcal from fat (Research Diets, catalog# D12331). For DIO mice, animals were maintained on the HFD for a minimum of 3 months prior to initiation of the pharmacological studies. The mice were maintained at 22 °C on a 12-h light–dark cycle with free access to water. Before the beginning of the studies, mice were randomized into treatment groups according to body weight. All injections and tests were performed during the light cycle with a group size of n = 8.
Mice were administered vehicle, FGF21 or FGF21-19A (0.1, 0.3 and 1 mg/kg) daily via sc injections and their body weight measurements were made on alternative days. At the end of 7 day treatment, blood was collected from tail veins using EDTA-coated microvette tubes (Sarstedt), immediately placed on ice, centrifuged at 5000 × g and 4 °C for 10 min, and plasma was stored at −80 °C until analyzed. Triglycerides and cholesterol levels were analyzed using colorimetric assay (Thermo Fisher).
Statistical analyses for in vivo experiments were performed on data using a one- (Figure 5A,B and 5D) or two-way (Figure 5C) ANOVA followed by Tukey post hoc multiple comparison analysis. All results are presented as mean ± SEM, n = 5–8, and P < 0.05 was considered significant. Group size estimations were based upon a power calculation to minimally yield an 80% chance to detect a significant difference in body weight of P < 0.05.

[2] = tested on: Hep3B cells; experiment: Agonist pERK AlphaLISA assay in Hep3B cells; assay type: cell-based, human; settings: 10 min at 37° C, n = 3
Description: (§2) 293T HEK cells expressing KLB (or KL) or Hep3B cells were plated to 5–6 x 10^4 cells/well density in 96-well cell culture plate coated with poly-D-Lysine (Corning). The cells were serum starved for four hours in 0.1% BSA fraction V (ThermoFisher) containing media prior to treatment with protein and/or an antagonist peptide at the mentioned concentrations for 10 min at 37° C. For the antagonist assays, a chosen fixed dose within the range of 0.8–30 nM (depending on the cell type) of FGF21 or FGF19 stimulant was added to all the wells. BaF3 cells expressing human KLB/FGFR1c or human KLB/FGFR4-1c chimera were seeded at 5 × 10^5 cells/well density in 96-well cell culture plate and serum-starved overnight. FGF21/19 analogs were diluted in 0.02% Tween-20 containing RPMI1640 medium and the cells were treated for 15 min at 37° C. […] Phosphorylated ERK1/2 (pERK) levels were subsequently recorded by EnSpire Alpha or Envision Multilabel plate reader (Perkin Elmer). […]
(§3) All cellular phosphorylation data were analyzed using 3-parameter non-linear regression curve in GraphPad Prism 7. […] Each peptide and protein analog was tested in triplicates in three independent experiments (n = 3), and normalized graphs plotted are expressed as mean ± SD unless otherwise noted.

[3] = tested on: 293/KLB cells; experiment: Agonist pERK AlphaLISA assay in 293/KLB cells; assay type: cell-based, human; settings: 10 min at 37° C, n = 3
Description: 293T HEK cells expressing KLB (or KL) or Hep3B cells were plated to 5–6 x 10^4 cells/well density in 96-well cell culture plate coated with poly-D-Lysine (Corning). The cells were serum starved for four hours in 0.1% BSA fraction V (ThermoFisher) containing media prior to treatment with protein and/or an antagonist peptide at the mentioned concentrations for 10 min at 37° C. For the antagonist assays, a chosen fixed dose within the range of 0.8–30 nM (depending on the cell type) of FGF21 or FGF19 stimulant was added to all the wells. BaF3 cells expressing human KLB/FGFR1c or human KLB/FGFR4-1c chimera were seeded at 5 × 10^5 cells/well density in 96-well cell culture plate and serum-starved overnight. FGF21/19 analogs were diluted in 0.02% Tween-20 containing RPMI1640 medium and the cells were treated for 15 min at 37° C. Following the respective cell treatments, the cells were lysed (with lysis buffer provided in the kit) for 10 min at room temperature on a shaker and the lysate was mixed with reaction mixture (consisting of reaction buffer, activation buffer, acceptor and donor beads provided in the kit). Phosphorylated ERK1/2 (pERK) levels were subsequently recorded by EnSpire Alpha or Envision Multilabel plate reader (Perkin Elmer). The cell assays corresponding to 293/KLB or Hep3B cells were carried out with AlphaLISA SureFire Ultra pERK1/2 (Thr 202/Tyr204) kit (Perkin Elmer), and BaF3 cells were done using AlphaScreen pERK1/2 (Thr202/Tyr204) kit (Perkin Elmer).
All cellular phosphorylation data were analyzed using 3-parameter non-linear regression curve in GraphPad Prism 7. Graphs are represented as relative maximal (100%) response of the positive control. All other test analog signals were adjusted accordingly as % values. […] Each peptide and protein analog was tested in triplicates in three independent experiments (n = 3), and normalized graphs plotted are expressed as mean ± SD unless otherwise noted.

[4] = tested on: 293/KL cells; experiment: Agonist pERK assay in 293/KL cells; assay type: cell-based, human; settings: n = 3
Description: as §2, §3

[5] = tested on: lean (C57BL/6J) mice; experiment: In vivo peptide antagonism study, cFos and EGR1 mRNA in pancreas and eWAT; set-up: species or system mouse; settings: 1 mg/kg sc, one hour, WAT and pancreas
Excerpt: as §1
Mice were administered vehicle, FGF21 (1 mg/kg), or FGF19 (1 mg/kg) alone or in combination with 19C26,A^26 (30 mg/kg), (dosed 15 min prior to FGF21 or FGF19 administration) via sc injections. One-hour post FGF21 or FGF19 dosing, the mice were sacrificed and their plasma, pancreas, and epididymal white adipose tissue (eWAT) were harvested for analyses. […] Following reverse transcription, levels of cFos and early growth response-1 (EGR1) mRNA levels were subsequently probed by quantitative PCR (ThermoFisher) and analyzed by ΔΔCT method. […]

[6] = tested on: human FGFR1/KLB; experiment: Agonist pERK AlphaScreen assay in BaF3 cells, FGFR1/KLB; assay type: cell-based; settings: BaF3 cells co-expressing KLB and FGFR1; 15 min at 37° C; n = 3
Excerpt: (§4) For generating receptor specific BaF3 cell line, human FGFR1c cDNA was cloned into pMXs-IRES-Puro vector (Cell Biolabs) to generate the expression plasmid pMX-FGFR1c-IRES-Puro. Human FGFR4 sequence was re-engineered to enhance signaling by constructing chimeric cDNA encoding the extracellular region of FGFR4 fused to the intracellular region and tyrosine kinase domain of FGFR1c, and the chimeric sequence was cloned into pMX-IRES-Puro vector to generate the expression plasmid pMX-chimeric FGFR4-1c-IRES-Puro. Human KLB cDNA was cloned into pMXs-IRES-Neo vector (Cell Biolabs) to generate expression plasmid pMX-KLB-IRES-Neo. BaF3 cells were transfected with pMX-FGFR1c-IRES-Puro and pMX- FGFR4-1c chimera-IRES-Puro expression plasmids respectively by electroporation (Xcell machine, Bio-Rad, 950 μF, 370V). Cells were selected with media containing 1 μg/ml Puromycin for 10–12 days. […]
(§5) 293T HEK cells expressing KLB (or KL) or Hep3B cells were plated to 5–6 x 10^4 cells/well density in 96-well cell culture plate coated with poly-D-Lysine (Corning). […] Phosphorylated ERK1/2 (pERK) levels were subsequently recorded by EnSpire Alpha or Envision Multilabel plate reader (Perkin Elmer). […]
(§6) All cellular phosphorylation data were analyzed using 3-parameter non-linear regression curve in GraphPad Prism 7. […]

[7] = tested on: human FGFR4-1c chimera/KLB; experiment: Agonist pERK AlphaScreen assay in BaF3 cells, FGFR4-1c chimera/KLB; assay type: cell-based; settings: BaF3 cells co-expressing KLB and FGFR4-1c chimera; 15 min at 37° C; n = 3
Excerpt: as §4, §5, §6

[8] = daily sc 0.1, 0.3 or 1 mg/kg, day 7

Row | Molecule | Body weight change [1] | Circulating insulin [1, 8] | Fasted plasma glucose, difference to native FGF21 [1, 8] | Plasma cholesterol ([1]; daily sc 0.1, 0.3 or 1 mg/kg, end of 7 day treatment) | pERK agonist activity, in words [2] | pERK agonist activity, in words [3] | pERK agonist activity, in words [4] | cFos and EGR1 transcriptional activity, FGF alone [5] | pERK agonist activity, in words [6] | pERK agonist activity, in words [7]
1 | B1 | dramatically more potent at each corresponding dose | potently reduced circulating insulin when compared to vehicle treatment | statistically different only at the 0.3 mg/kg dose | plasma cholesterol was lowered | significantly more potent when compared to native FGF21; also recorded: ten-fold-enhanced in vitro potency | significantly more potent when compared to native FGF21; also recorded: ten-fold-enhanced in vitro potency | – | – | – | –
2 | B2 | – | – | – | – | – | – | significantly more potent than FGF21 | – | – | –
3 | B3 | – | – | – | – | – | only negligible activity | – | – | – | –
4 | B4 | induced weight loss in a dose-dependent manner | potently reduced circulating insulin when compared to vehicle treatment | – | – | – | nanomolar potencies | – | induced robust transcriptional activity in each tissue | active | minimal signaling
